According to PMC11992174:

Target: MtbClpC1^F444S-E288A-E626A (Mycobacterium tuberculosis) (UniProt P9WPC9)
Experiment: cryo-EM structure

MtbClpC1^F444S-E288A-E626A (from UniProt P9WPC9 1-848) (enzyme)
stoichiometry N: 6
